{
  "source": "patent US20120230990A1",
  "about": "(MERCK SERONO, published 2012)",
  "binders": {"B1": {"name": "humanized 280.46.3.4 antibody comprising 280.VH3-66-1 paired with 280.VK4-1-S, human IgG1/kappa (antibody, V domains shown)", "VH": "EVQLVESGGGLVQPGGSLRLSCAASGYSLTADYMNWVRQAPGKGLEWIGEINPSTGTTTYNQKFEARATLTVDQSKNTAYLQMNSLRAEDTAVYYCARFDAYFDYWGQGTLVTVSS", "VL": "not shown"}, "B2": {"name": "humanized 280.46.3.4 antibody comprising 280.VH3-66-4 paired with 280.VK4-1-T, human IgG1/kappa (antibody, V domains shown)", "VH": "EVQLVESGGGLVQPGGSLRLSCAASGYSLTADYMNWVRQAPGKGLEWIGEINPSTGTTTYNQKFKGRATLSVDQSKNTAYLQMNSLRAEDTAVYYCARFDAYFDYWGQGTLVTVSS", "VL": "not shown"}, "B3": {"name": "mouse 280.46.3.4 (mouse anti-human IL-22RA monoclonal antibody from hybridoma 280.46.3.4, ATCC PTA-6284) (antibody, V domains shown)", "VH": "EVQLQQSGPELVRPGTSVKISCKASGYSLTADYMNWVKQSPEESLEWIGEINPSTGTTTYNQKFEAKATLTVDQSSNTAYLQLTSLTSEDSAVYYCARFDAYFDYWGQGTTVTVSS", "VL": "DIVMTQSPSSLAVSVGEKVTMSCKSSQSLLYSSNQKNCLAWYQQKPGQSPKLLIYWASSRESGVPDRFTGSGSGTDFTLTISSVKTEDLAVYYCQQYFSYPFTFGSGTKLEIKR"}, "B4": {"name": "humanized 280.46.3.4 antibody comprising 280.VH3-66-18 paired with 280.VK4-1-T, human IgG1/kappa (antibody, V domains shown)", "VH": "EVQLVESGGGLVQPGGSLRLSCAASGYSLTAEYMNWVRQAPGKGLEWIGEINPSTGTTTYNQKFKGRATLSVDQSKNTAYLQMNSLRAEDTAVYYCARFDAYFDYWGQGTLVTVSS", "VL": "not shown"}, "B5": {"name": "Fab of D32E mutant: 280.VH3-66-18 paired with 280.VK4-1-T (Fab, V domains shown)", "VH": "EVQLVESGGGLVQPGGSLRLSCAASGYSLTAEYMNWVRQAPGKGLEWIGEINPSTGTTTYNQKFKGRATLSVDQSKNTAYLQMNSLRAEDTAVYYCARFDAYFDYWGQGTLVTVSS", "VL": "not shown", "notes": "NiNTA-purified Fab, which implies a His tag that is not described; also called version 18"}, "B6": {"name": "Fab of D96E mutant: 280.VH3-66-4 with Asp to Glu at position 96, paired with 280.VK4-1-T (Fab, name in Kabat numbering, V domains shown)", "VH": "EVQLVESGGGLVQPGGSLRLSCAASGYSLTADYMNWVRQAPGKGLEWIGEINPSTGTTTYNQKFKGRATLSVDQSKNTAYLQMNSLRAEDTAVYYCARFEAYFDYWGQGTLVTVSS", "VL": "not shown", "notes": "NiNTA-purified Fab, which implies a His tag that is not described"}, "B7": {"name": "human IL-22RA (recombinant, form not stated) (receptor)", "chain": "HAPEDPSDLLQHVKFQSSNFENILTWDSGPEGTPDTVYSIEYKTYGERDWVAKKGCQRITRKSCNLTVETGNLTELYYARVTAVSAGGRSATKMTDRFSSLQHTTLKPPDVTCISKVRSIQMIVHPTPTPIRAGDGHRLTLEDIFHDLFYHLELQVNRTYQMHLGGKQREYEFFGLTPDTEFLGTIMICVPTWAKESAPYMCRVKTLPDRTWT", "notes": "a soluble ECD is likely; also called hIL-22RA; human interleukin 22 receptor alpha"}, "B8": {"name": "murine IL-22RA (recombinant, form not stated) (receptor, UniProt Q80XZ4 16-230, looked up)", "chain": "HTTVDTSGLLQHVKFQSSNFENILTWDGGPASTSDTVYSVEYKKYGERKWLAKAGCQRITQKFCNLTMETRNHTEFYYAKVTAVSAGGPPVTKMTDRFSSLQHTTIKPPDVTCIPKVRSIQMLVHPTLTPVLSEDGHQLTLEEIFHDLFYRLELHVNHTYQMHLEGKQREYEFLGLTPDTEFLGSITILTPILSKESAPYVCRVKTLPDRTWAYS", "notes": "also called mIL-22RA; mouse IL-22 receptor alpha"}},
  "key": {"[1]": {"target": "T1, human IL-22RA on cells (HepG2 hepatoma cells, normal human keratinocytes, BaF3 cells transfected with human … (human, UniProt Q8N6P7 16-574))", "T1 sequence": "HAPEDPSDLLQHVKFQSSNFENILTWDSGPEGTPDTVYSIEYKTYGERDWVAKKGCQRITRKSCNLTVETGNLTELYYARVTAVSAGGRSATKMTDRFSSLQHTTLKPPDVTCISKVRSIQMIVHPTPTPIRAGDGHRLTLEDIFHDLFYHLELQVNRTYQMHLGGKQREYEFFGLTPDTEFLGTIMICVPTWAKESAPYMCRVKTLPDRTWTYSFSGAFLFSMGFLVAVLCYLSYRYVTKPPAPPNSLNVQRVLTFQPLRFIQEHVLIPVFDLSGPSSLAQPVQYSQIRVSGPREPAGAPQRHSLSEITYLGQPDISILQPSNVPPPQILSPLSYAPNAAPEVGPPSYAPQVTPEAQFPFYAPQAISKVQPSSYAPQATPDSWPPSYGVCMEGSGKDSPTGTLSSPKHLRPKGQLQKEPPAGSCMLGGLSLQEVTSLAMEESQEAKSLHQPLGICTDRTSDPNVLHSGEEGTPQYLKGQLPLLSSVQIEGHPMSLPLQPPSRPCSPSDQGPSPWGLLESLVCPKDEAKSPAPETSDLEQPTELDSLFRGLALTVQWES", "experiment": "cell-based or functional assay"}, "[2]": {"target": "T2, murine IL-22RA on cells (HEPA1-6 hepatoma cells, BaF3 cells transfected with murine IL-22RA and IL-10RB) (murine, UniProt Q80XZ4 16-581)", "T2 sequence (looked up)": "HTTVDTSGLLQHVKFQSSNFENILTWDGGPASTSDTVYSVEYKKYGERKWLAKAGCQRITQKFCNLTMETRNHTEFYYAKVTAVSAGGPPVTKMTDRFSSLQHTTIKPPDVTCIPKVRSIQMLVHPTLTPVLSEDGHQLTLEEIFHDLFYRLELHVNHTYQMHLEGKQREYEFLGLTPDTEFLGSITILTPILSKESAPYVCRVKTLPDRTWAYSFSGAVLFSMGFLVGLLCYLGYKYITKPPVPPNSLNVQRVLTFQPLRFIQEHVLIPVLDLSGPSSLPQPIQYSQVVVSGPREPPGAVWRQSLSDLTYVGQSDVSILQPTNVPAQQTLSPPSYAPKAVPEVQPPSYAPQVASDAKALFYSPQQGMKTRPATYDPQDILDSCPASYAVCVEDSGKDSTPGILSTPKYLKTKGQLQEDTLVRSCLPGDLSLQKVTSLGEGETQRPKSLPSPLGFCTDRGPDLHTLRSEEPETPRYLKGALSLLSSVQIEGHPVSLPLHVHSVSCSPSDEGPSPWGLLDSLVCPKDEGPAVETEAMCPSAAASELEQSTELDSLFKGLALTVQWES", "experiment": "cell-based or functional assay"}, "[3]": {"target": "B7", "experiment": "Biacore, NiNTA-purified Fab"}, "[4]": {"target": "T3, 280.346.TSY (humanized anti-human IL-22RA antibody comprising 280.VH3-66-46 paired with 280.VK4-1-TSY, human …)", "T3 construct": "Produced in CHO cells; also called 280.VH3-66-46/VK4-1-TSY; 280.VH3-66.46 paired with 280.IGKV4-1-TSY", "T3 sequence (VL, as listed by the source)": "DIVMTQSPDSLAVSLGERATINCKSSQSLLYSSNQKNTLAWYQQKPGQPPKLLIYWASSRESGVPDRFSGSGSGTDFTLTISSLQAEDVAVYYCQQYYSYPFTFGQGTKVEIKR", "experiment": "competitive ELISA: soluble competitor against coated human IL-22RA-ECD for biotinylated 280-346-TSY; soluble human IL-22RA as competitor", "procedure": "(§1) FIG. 23 reports the results of a competitive ELISA done to measure the specificity of 280.346.TSY to human IL-22RA. Microtiter plates were coated with human IL-22RA-ECD (i.e. IL-22RA-Extra Cellular Domain). Biotinylated 280-346-TSY antibody was added to the plate in the presence of competitors: human interleukin 22 receptor alpha (hIL-22RA), human IL-22 binding protein (hIL-22BP), murine IL-22 receptor alpha (mIL-22RA), human IL-10 receptor alpha (hIL-10R) and human IL-20 receptor alpha (hIL-20R).\n(§2) Specificity and binding affinity of 280.346.TSY was determined using a competitive ELISA. Microtiter plates were coated with human IL-22RA-ECD (i.e. IL-22RA-Extra Cellular Domain). Biotinylated 280-346-TSY antibody was added to the plate in the presence of competitors: human interleukin 22 receptor alpha (hIL-22RA), human IL-22 binding protein (hIL-22BP), mouse IL-22 receptor alpha (mIL-22RA), human IL-10 receptor alpha (hIL-10R) and human IL-20 receptor alpha (hIL-20R)."}, "[5]": {"target": "T3, 280.346.TSY (humanized anti-human …)", "experiment": "competitive ELISA: soluble competitor against coated human IL-22RA-ECD for biotinylated 280-346-TSY; soluble murine IL-22RA as competitor", "procedure": "as §1, §2"}},
  "note": "“And” between values parts separate entries of the source, which are not always exact repeats. Equal values may be shown once.",
  "data": [
    {"binder": "B1", "values": [
      {"measurement": "IC50, STAT3 phosphorylation assay in human HepG2 hepatoma cells stimulated with recombinant human IL-22", "setting": "[1]", "result": 258, "unit": "pM"},
      {"measurement": "IC50, proliferation assay in BaF3 cells transfected with human IL-22RA and IL-10RB, cultured with recombinant human IL-22", "setting": "[1]", "result": 340, "unit": "pM"},
      {"measurement": "fold potency against the mouse parental antibody 280.46.3.4, STAT3 phosphorylation assay in HepG2 cells", "setting": "[1]", "result": 1.4, "unit": "fold"},
      {"measurement": "fold potency against the mouse parental antibody 280.46.3.4, proliferation of human IL-22 receptor transfected BaF3 cells", "setting": "[1]", "result": 1.7, "unit": "fold"},
      {"measurement": "IC50, proliferation assay in BaF3 cells transfected with murine IL-22RA and IL-10RB, cultured with recombinant murine IL-22", "setting": "[2]", "result": 693, "unit": "pM"},
      {"measurement": "fold potency against the mouse parental antibody 280.46.3.4, proliferation of murine IL-22 receptor transfected BaF3 cells", "setting": "[2]", "result": 2.1, "unit": "fold"}
    ]},
    {"binder": "B2", "values": [
      {"measurement": "IC50, STAT3 phosphorylation assay in human HepG2 hepatoma cells stimulated with recombinant human IL-22", "setting": "[1]", "result": 183, "unit": "pM"},
      {"measurement": "IC50, proliferation of human IL-22 receptor (IL-22RA and IL-10RB) transfected BaF3 cells", "setting": "[1]", "result": 334, "unit": "pM"},
      {"measurement": "fold potency against the mouse parental antibody 280.46.3.4, STAT3 phosphorylation assay in HepG2 cells", "setting": "[1]", "result": 1.8, "unit": "fold"},
      {"measurement": "fold potency against the mouse parental antibody 280.46.3.4, proliferation of human IL-22 receptor transfected BaF3 cells", "setting": "[1]", "result": 1.75, "unit": "fold"},
      {"measurement": "IC50, proliferation of murine IL-22 receptor (IL-22RA and IL-10RB) transfected BaF3 cells", "setting": "[2]", "result": 687, "unit": "pM"},
      {"measurement": "fold potency against the mouse parental antibody 280.46.3.4, proliferation of murine IL-22 receptor transfected BaF3 cells", "setting": "[2]", "result": 2.1, "unit": "fold"}
    ]},
    {"binder": "B3", "values": [
      {"measurement": "IC50, STAT3 phosphorylation assay in human HepG2 hepatoma cells stimulated with recombinant human IL-22", "setting": "[1]", "result": "333 pM and 370 pM and 266 pM"},
      {"measurement": "IC50, STAT3 phosphorylation assay in normal human keratinocytes stimulated with recombinant human IL-22", "setting": "[1]", "result": 542, "unit": "pM"},
      {"measurement": "IC50, proliferation assay in BaF3 cells transfected with human IL-22RA and IL-10RB, cultured with recombinant human IL-22", "setting": "[1]", "result": "545 pM and 587 pM"},
      {"measurement": "IC50, proliferation assay in BaF3 cells transfected with murine IL-22RA and IL-10RB, cultured with recombinant murine IL-22", "setting": "[2]", "result": "849 pM and 1470 pM"}
    ]},
    {"binder": "B4", "values": [
      {"measurement": "IC50, STAT3 phosphorylation assay in human HepG2 hepatoma cells", "setting": "[1]", "result": 132, "unit": "pM"},
      {"measurement": "fold potency against the mouse parental antibody 280.46.3.4, STAT3 phosphorylation assay in HepG2 cells", "setting": "[1]", "result": "~3", "unit": "fold"}
    ]},
    {"binder": "B5", "values": [
      {"measurement": "fold decrease of the off rate against parental unmutated D32 (280.VH3-66-4)", "setting": "[3]", "result": "~5", "unit": "fold"},
      {"measurement": "fold increase of the on rate against parental unmutated D32 (280.VH3-66-4)", "setting": "[3]", "result": "~2", "unit": "fold"}
    ]},
    {"binder": "B6", "values": [
      {"measurement": "fold reduction of affinity against parental unmutated D32 (280.VH3-66-4)", "setting": "[3]", "result": "~500", "unit": "fold"}
    ]},
    {"binder": "B7", "values": [
      {"measurement": "IC50", "setting": "[4]", "result": 0.0182, "unit": "nM"}
    ]},
    {"binder": "B8", "values": [
      {"measurement": "IC50", "setting": "[5]", "result": 0.149, "unit": "nM"}
    ]}
  ]
}
